{"source": "paper PMC8836807", "about": "(Science Advances, 2022)", "target": "6His-Nup60 aa27–539ΔHRΔFG-mGFP-StrepII (budding yeast (S. cerevisiae), UniProt P39705 27-539, ΔHR (aa48–162) | ΔFG (aa381–504))", "experiment": "GUV co-recruitment assay", "data": [{"binder": "6His-SUMO-Nup2 aa83–136–TagmBFPII-StrepII (domain or fragment, budding yeast (S. cerevisiae), UniProt P32499 83-136, looked up) NSPTTESNSRLKALNLQFKAKVDDLVLGKPLADLRPLFTRYELYIKNILEAPVK", "values": [{"measurement": "binding result", "value": "binds"}]}]}
